Reference: the nanobody polyreactivity screen of Harvey et al. (2022)

Assay: yeast display, Sf9 membrane polyspecificity reagent, FACS + sequencing; frameworks hold sequencing errors
Procedure, shortened: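 Galactose induction of a Saccharomyces cerevisiae BJ5465 synthetic nanobody display library ran 36–48 hours. The cells were then stained for 1 hour at 4 °C with 10% biotinylated, detergent-solubilized Sf9 membrane reagent, pulled down on streptavidin microbeads and FACS-sorted into low and high (top ~1%) gates on expression and reagent-binding fluorescence. Labels for polyreactivity follow the gate of origin.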

Sequence | polyreactivity (PSR sort gate)
QVQHVESGGGLVQAGGSLRLSCAASGSIFGANAMGWYRQAPGNERQLVAAITSGGSTTYADSVKGRFTISRDNAKNTVYLQMNSLKPDDTAVYYCAADESTPYWPVDNFDYWGQGTQVTVSS | low polyreactivity
QVQHVESGGGLVQAGGSLRLSCAASGSIFGVYDMGWYRQAPGKERELVAAISWRGGSTYYADSVKGRFTISRDNAKNTVYLQMNSVKPEDTAVYYCNALGVAEYDWGQGTQVTVSS | low polyreactivity
QVQHVESGGGLVQAGGSLRLSCAASGSIFHVNAMGWYRQAPGKERELVAAISSSGGRTYYADSVKGRFTISRDNAKNTVYLQMNSLKPEDTAVYYCAAASQVRQPPNGGNGYWGQGTQVTVSS | high polyreactivity
QVQHVESGGGLVQAGGSLRLSCAASGSIFNLYVMGWYRQAPGKERELVATISSGGSTNYADSVKGRFTISRDNAKNTVYLQMNSLKPEDTAVYYCAKPYIVYYSMDYWGQGTQVTVSS | low polyreactivity
QVQHVESGGGLVQAGGSLRLSCAASGSIFRYNARGWYRQAPGKERELVAAISSSGGRTYYADSVKGRFTISRDNAKNTVYLQMNSLKPEDTAVYYCATADTRRFTYGYYYWGQGTQVTVSS | high polyreactivity
QVQHVESGGGLVQAGGSLRLSCAASGSIFSVYAMGWYRPEPGKASQLFAGITRGGSTYADSVKGRFTISRDNAKNTVYLQMNSLKPEDTAVYYCAADALIATPSWGKYNYWVQGTQVTVSS | high polyreactivity
QVQHVESGGGLVQAGGSLRLSCAASGSIFVRNAMGWYRQAPGKEREFVAAISRSGDSTNYADSVKGRFTISRDNAKNTVYLQMNSLKPEETAVYYCAVGYRYLKWVDYWGQGTQVTVSS | high polyreactivity
QVQHVESGGGLVQAGGSLRLSCAASGSIFWVYVMGRYIQAPGQERELVAAITNGGSTDYADSVKGRFTISRDNAKNTVYLQMNSLKPEDTAFYYCAKRSTIWGRILITFDYWGQGTQVTVSS | low polyreactivity
QVQHVESGGGLVQAGGSLRLSCAASGSIIDIYAMGWYRQAPGKERELVASISGGAGSTNYADSVKGRFTISRDNAKNSVYLQMNSLKPEDTGVDDFAAVVYVPVYFQHKFDVEYEYWGQGTQVTVSS | low polyreactivity
QVQHVESGGGLVQAGGSLRLSCAASGSIIPSNVMGWYRQTPGKDRELVAAISNTGSTNYADSVKGRFTISRDNAKNSVYLQMNSLKPEDTAVYYCNADASYGFWSLLDYDYWGQGTQVTVSS | low polyreactivity
QVQHVESGGGLVQAGGSLRLSCAASGSILGWYAMGWYRQAPGKERELDAAITTAGDSTYYADSVKGRFTISRDNAKNTVYLPLNSLKPEDTAVYYCATRYQVRRGSGPSYDYWGQGTQVTVSS | high polyreactivity
QVQHVESGGGLVQAGGSLRLSCAASGSILRSYAMGWFRQAPGKERELVAVINGSGGRTYYADSVKGRFTISRDNEKNTVYLQMISLKPEDTAVYYCNADPGGRYPRRGYAHEGDYWGQGTQVTVSS | low polyreactivity
QVQHVESGGGLVQAGGSLRLSCAASGSILYLYAMGWYRQAPGKERELVAAISLGDGSTYYADSVKGRFTISRDNAKNTVYLQMNSLKPEDTAVYYCNADRYTYWQDYNYWGQGTQVTVSS | low polyreactivity
QVQHVESGGGLVQAGGSLRLSCAASGSIYISNAMGWYRQAPGKERELVAAITSSGGSTYDADSVKGRFTISRDNAKNTVSLQMNSLKPEDTAVYYCAARPGRNYYYWGQGTQVTVSS | high polyreactivity
QVQHVESGGGLVQAGGSLRLSCAASGSTFGRNAMGWYRQAPGKERELVAAINWSDGSTHYADSVKGRFTISRDNAKNTVYLQMNSLKPEDTAVYYCGADAWSWPVDYNYWGQGTQVTVSS | low polyreactivity
QVQHVESGGGLVQAGGSLRLSCAASGSTFGWYAMGWYRQAPGKERELVAAITRRGTRTYYADSVKGRFTISRDNAKNTVYLQMNSLKPEDTAVYYCNARGFPGKFGYWGQGTQVTVSS | high polyreactivity
QVQHVESGGGLVQAGGSLRLSCAASGSTFPANAMGRYRQAPVKERELVAVISSGGRTYYADSVKGRFTISRDNAKNTVYLQLNSLKPEDTEVYYCAAGSYAGSGPSPWLEYWGQGTQVTVSS | high polyreactivity
QVQHVESGGGLVQAGGSLRLSCAASGSTFRPYAMGWYRQAPGKERELVARITVSGDSTYYADSVKGRFTISRDNAKNTVYLQMNSLKPEDTAVYYCAREFDYSLSGFDYWGQGTQVTVSS | low polyreactivity
QVQHVESGGGLVQAGGSLRLSCAASGSTFTAYAMGWYRQAPGKVSELVAVITSGGGTYYADSVKVRFTISRDNANNTDYLQMNSLKPEDTAVYYCHSARTYAGTYIYRYGYWGQGTQVTVSS | high polyreactivity
QVQHVESGGGLVQAGGSLRLSCAASGSTFTYNAMGWYRQAPGKEREKVASISSGTTTYYADSVKGRFTISRDNAKNTVYLQMNSLKPEDTAVYYCAVDSWSRVQGWLAHNYDYWGQGTLVTVSS | low polyreactivity
QVQHVESGGGLVQAGGSLRLSCAASGSTFVQYAMGWYRQAPGKERELVAAIRGRGDSTYYADSVKGRFTISRDNAKNTVYLQMNSLKPEDTAVYYCAARGQGSRGMYYWGQGTQVTVSS | low polyreactivity
QVQHVESGGGLVQAGGSLRLSCAASGSYLRYYAMGWYRQAPGKERELVAAISRSGTNTYYADSVKGRFTFSPDNAKNSVYLQMNSVKPEVTAVYYCAARGYYRDYDSWGQGTQVTVSS | high polyreactivity

Sequence | polyreactivity (PSR sort gate)
QVQHVESGGGLVQAGGSLRLSCAASGYIFPGSAMGWYRPAPGKERELVAAISTSGGYTYYADSVKGRFTISRDNAKNTVYFQMNSLNPEVTAVYYCAADRYSTDPYAKGTEFYYWGQGTQVTVSS | low polyreactivity
QVQHVESGGGLVQAGGSLRLSCAASGYIFVRNAMGWYRQAPGKERELVAAISGSGGSTYYADSVKGRFTISRDNAKNTVYLQMNSLKPEDTAVYYCAADYATVTWRGIAYDYWGQGTQVTVSS | low polyreactivity
QVQHVESGGGLVQAGGSLRLSCAASVSIFEYYAMGWDRRAHGKERELVARITDSGGSTYADSVKGRFTISRDNAKNTVYLQMSSLKPEDTAVYYCAADDNYFDFDYWGQGTQVTVSS | low polyreactivity
QVQHVESGGGLVQAGGSLRLSCAASVSIFYDYAMGWYRQAPGKERELVAAINKSGGSTYYADSVKGRFTISRDNAKNTVYLQMNSLKPEDTAVYYCIARKRLGPVRYGYWGQGTQVTVST | high polyreactivity
QVQHVESGGGLVQAGGSLRLSCAASVSIFYGYAMGWSRQAPGKERELVATIRFITGSTYYADSVKGRFTISRDNAKNTVYLQMNSRKPEDTAVYYCAAVYVGYYDNYDYWGQGTQVTVSS | low polyreactivity
QVQHVESGGGLVQAGGSLRLSCAAYGRTFGYYAMGWNRQAPGKDRELVAAITSGGRTNYADSVKGRFTISRDNAKNTVYLQMISQKPEDTAVYYCAATWNWPLSERKFNYWGQGTQVTVSS | low polyreactivity
QVQHVESGGGLVQAGGSLRLSCASSGRIFYFYAMGWYRQAPGKLRELVAAISTSGGSTYYADSVKGRFKISRDNATNTVYLQMNSLKPEDPAVYYCAGRFRYYGSEYDYWGQGTQVTVSS | low polyreactivity
QVQHVESGGGLVQAGGSLRLSCASSGSIFVGNAMGWYRQAPGKERELVAAISRRGGRPYYADSVKGRFTISRDKAKNTVYLQMNSLKPEDTAVYYCAAEYTYQNRIRFDYWGQGTQVTVSS | high polyreactivity
QVQHVESGGGLVQAGGSLRLSCDAYGSTFYYYAMGWYRQAPGKERELVASISRGGSTNYAYSVKGRFTISRDNAKNTVYLQMNSLKAEDTAVYYCNADRYLRPKSWWTVYYERDYWGQGTQVTVSS | low polyreactivity
QVQHVESGGGLVQAGGSLRLSCSASGFTLTAYAMGWSRQPPGKEREFVAAISTSGTRTYYADSVKGRFTISRDNAKNTVYLQMNSLKQEDTAVYYCAARYSGYQYWKFNYWGQGTQVTVSS | high polyreactivity
QVQHVESGGGLVQAGGSLRLSCSASGRTFSSYVMGWYRQAPGKERELVATITSGGITYYADSVKGRFTISRDNAKNTVYLQMNSLKPEDTAVYYCARAPPGDRFVRYDYWGQGTQVTVSS | high polyreactivity
QVQHVESGGGLVQAGGSLRLSFAASGSTFAWYPMGWYRQAPGKERELVAAITRDGSTYYADSVKGRFTISRDNAKNTVYLQMNSLKPEDTAVYYCAADLSYWRGGHSRYYWGQGTQVTVSS | low polyreactivity
QVQHVESGGGLVQAGGSLRLSSAASGGTFNVYAMGWYRQAPGKESELVAAIRWSGGSTYYADSVKGRFTISRDNAKNTVYLQMNSLKPEDTAVYFCAARFYGRSQTYGSWGLGTQVTVSS | high polyreactivity
QVQHVESGGGLVQAGGSLRLSSAASGHTFHRYAMGWYRQARWKESELVAAISDSGSSSYYADSVKRRFTISRDYAKYTVYLQMNSLKPEDTALYYCAAVSGFFDQYDYWGQGTQVTVSS | low polyreactivity
QVQHVESGGGLVQAGGSLRLTCAASGFIFVIYAMGWYRTAPGKERELVAAITESGDRTYYADSVKGGFTISRDNAKNTVYLQMNSLKPEDTAVYYCNALLSYGYHAAYGYWGQGTQVTVSS | high polyreactivity
QVQHVESGGGLVQAGGSLRLTCAASGRIIAGYAMGWYRQATGKEREMVAAISSRGGSTYYADSVKGRFSISRDNAKNTVDLQMNSLKPVDTAVYYCAKRSWYSYVYGSGDYWGQGTQVTVSS | high polyreactivity
QVQHVESGGGLVQAGGSRRLSCAASGSIFFYAMGWYRQAPAKERVLVAAITSAGSTNFADSVKGRFTISRDNAKNTVYLQMYSLKPEDTAVYYCAAGYVGYSWSYPYGWVEYDYWGQGTQVTVSS | high polyreactivity
QVQHVESGGGLVQAGRSLRLSCAASGILRRYAMGWYIQERGKERELVAAITRTGGRTYYADSVKGRFTISRDNAKNTVYLQMNSLKPEDTAVYYCATDRYVVSGMDYWGQGTQVTVSS | high polyreactivity
QVQHVESGGGLVQAGVSLRLSCAASGLTFTRYAMGWDRQAPGKERELVAAISWSGGSTYYADSVKGRFTISRDNAKNTVYLQMNSLKPEDTAVYYCAAEPYKQYTGYYYSGFEFWGQGTQVTVSS | high polyreactivity
QVQHVESGGGLVQAGVSLRLSCAASGSIFVYYAMGWYRQAPGKERELVASISESDGSTSYADSVKGRFTISRDNAMNTVYLQMNSLKPEDTAVSYCAADPYFYWYSPSFDYWGQGTQVTVSS | low polyreactivity
QVQHVESGGGLVQAGVSLRLSCAATGRIFGRYVMGWYRQAPGKETELVARIRRNVGSTYYADSVKGRFTISRDNAKYPVYLQMNSLKPEDTAVYYCAAESYDTWRRYESWGQGTQVTVSS | high polyreactivity
